# ± gives the standard error. This sample holds only a part of the variants without activity.
# B1: glmS ribozyme (parent)
# chain: AUAAAAGCGCCAGAACUACAGAAAUGUAGUUGACGAGGAGGAGGUUUAUCGAAUUUUCGGCGGAUGCCUCCAAA
# Variants of: B1
# Experiment: self-cleavage kobs at 10000 uM GlcN6P; higher = faster cleavage; RNA array
# Conditions: with glucosamine-6-phosphate
# Outline: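 Glucosamine-6-phosphate, from 40 μM to 10 mM in HEPES/KCl/Mg(OAc)2 buffer, was flowed over sequenced MiSeq chips carrying barcoded ribozyme variants transcribed in situ by E. coli RNA polymerase. A hybridised Cy3 probe tracked the variants at 37 °C as tiles were imaged over ~14 h. kobs, kcat and KM were obtained by fitting normalised per-tile medians to exponential decays and then applying weighted Michaelis–Menten fits across concentrations.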
row,Variant,self-cleavage kobs at 10000 uM GlcN6P [s⁻¹]
1,C10U A39G A42U U49A A53C U69G,< 1e-05
2,G35C G38U G43A G51C G60C,< 1e-05
3,G32C G35A G60A,< 1e-05
4,C16G U47A U56A U65G,0.000338 ± 9.1e-05
5,C16G G29A C67A,0.000261 ± 8.9e-05
6,C8A A42G G66U,< 1e-05
7,G29C C61G C67G,< 1e-05
8,A15U A53U G63C,< 1e-05
9,C8A C11G U49C C67G,< 1e-05
10,U46A G62C C71U,< 1e-05
11,G7A G13C G60A,< 1e-05
12,C16A G44A C67A,9.58e-05 ± 2.5e-05
13,A14C G51U,< 1e-05
14,C10U G37C G43C U47C,< 1e-05
15,A14G G29U G40C,0.00075 ± 0.00013
16,U31A G66C,0.000307 ± 9.3e-05
17,A42U A48U U65C,< 1e-05
18,A6G C16A G37C U69C,< 1e-05
19,A48U G62C C67G,< 1e-05
20,G13C U30C U47A,8.1e-05 ± 2.1e-05
21,A36G U46A C58A,< 1e-05
22,A39C U55G C70U,0.000211 ± 4e-05
23,G37C U55G,3.62e-05 ± 8.4e-06
24,G37C U55A,4.97e-05 ± 1e-05

row,Variant,self-cleavage kobs at 10000 uM GlcN6P [s⁻¹]
1,U47A G59A C71U,6.73e-05 ± 2.5e-05
2,G38U A53U U69G,0.000134 ± 3.5e-05
3,A14G C50G C70U,9.53e-05 ± 1.4e-05
4,A33C G37U C70G,< 1e-05
5,A39G U45G C70A,0.000127 ± 4.2e-05
6,G7U A48G C50G C61G,0.000895 ± 0.00024
7,U31C C50G G63A,3.51e-05 ± 1.5e-05
8,A36C G37C A53U U69C,< 1e-05
9,G29C C34U G38A C71U,< 1e-05
10,C11U A64U C67G,< 1e-05
11,U30A A48G C68A,< 1e-05
12,A14G U54A C70G,0.000124 ± 2.6e-05
13,G32U G43U A53G G63U A64G G66U,< 1e-05
14,G38A U57C A64U,< 1e-05
15,A48G U49G,5.7e-05 ± 2.1e-05
16,G32A A33U G37U,< 1e-05
17,C34A A36C G37U U69G,0.000153 ± 3.2e-05
18,G13C G32A U45G A52C C70U,< 1e-05
19,G9A U65A C67A C70G,5.56e-05 ± 1.6e-05
20,A36C G38C A64C,< 1e-05
21,A6C U31C G35A A42C,< 1e-05
22,G40C G41A C50U,< 1e-05
23,C10U G43A C71U,< 1e-05
24,U55G C61A,< 1e-05

row,Variant,self-cleavage kobs at 10000 uM GlcN6P [s⁻¹]
1,C16A G38A A48C,< 1e-05
2,G29C U46A,7.43e-05 ± 1.7e-05
3,C10U A15C U31C,< 1e-05
4,U30A C61A,< 1e-05
5,G21U G29C,0.00256 ± 0.0005
6,G41C U56C,3.26e-05 ± 8.9e-06
7,A33G G37A U69G,< 1e-05
8,G59U G62A A64G,< 1e-05
9,C16A G32U A33U C50G C67U,0.000275 ± 9.8e-05
10,C8G U30A A39G G41C U54G C67A,< 1e-05
11,C8U G13U A15U C50U,< 1e-05
12,A12U A15U G29A,0.00126 ± 0.00032
13,A12C G29C C70U,0.00119 ± 0.00031
14,C50G A53U C71G,0.000148 ± 4e-05
15,A6U A39C G43U G51U C70G C71A,< 1e-05
16,A15U G44U,3.08e-05 ± 1.4e-05
17,C11U A39U U54G,0.000492 ± 0.00011
18,C8U A39C G41A U57C G59U,< 1e-05
19,G40U G43U U54C,< 1e-05
20,G32C U54A U56G,3.42e-05 ± 1.1e-05
21,C16G G29U C58A,0.000585 ± 0.00014
22,C8A A14U A15G G29A,< 1e-05
23,G35C A42G U45G,< 1e-05
24,A14U A53C C67U,0.000208 ± 3.8e-05

row,Variant,self-cleavage kobs at 10000 uM GlcN6P [s⁻¹]
1,A42C C50U C68A C70A,< 1e-05
2,G13C A14G G41U,6.44e-05 ± 1.7e-05
3,C10G G40U U55A C61U,< 1e-05
4,G32C C68G C71G,0.000123 ± 2.3e-05
5,G40A A64U,2.07e-05 ± 9.5e-06
6,C16G G32C C70U A73C,0.000111 ± 1.7e-05
7,G29A G32U C70A,4.82e-05 ± 1.8e-05
8,C16U G44A U54G,0.000358 ± 7.9e-05
9,A15G A52G C67U C71G,4.89e-05 ± 1.3e-05
10,U31C G32A U47G C67A,6.62e-05 ± 1.4e-05
11,G40C U45A U49G,5.2e-05 ± 1.9e-05
12,U54G C67U C68U,0.000147 ± 2.9e-05
13,A52U U55C U65C C68G U69A,< 1e-05
14,A39U A48G G60A,< 1e-05
15,G38U G41A U45G U56A G59U,< 1e-05
16,A15U G32U U54A,0.00058 ± 0.00013
17,A12U A33C C34U C70G,< 1e-05
18,G7A A53C G63A,< 1e-05
19,A14U A53U U56G C58U,3.75e-05 ± 8.7e-06
20,G29A C58G,6.15e-05 ± 1.1e-05
21,G29A C58U,4.95e-05 ± 8.6e-06
22,A14G U30A G41U C68A,< 1e-05
23,A12U A15U C16A,0.00105 ± 0.00024
24,G9A G60U C70G,< 1e-05

row,Variant,self-cleavage kobs at 10000 uM GlcN6P [s⁻¹]
1,G9C C10G A52U C71A,< 1e-05
2,G43C C68U C70G C71U,< 1e-05
3,C10G C11G U55C G60A,< 1e-05
4,A48U U54C C68U,9.01e-05 ± 2.8e-05
5,G7C C34A A48G U56G C71U,< 1e-05
6,G41A A52U,9.26e-05 ± 1.6e-05
7,C8U U30G A39G G43U,< 1e-05
8,G9C G32C A36U U46A,< 1e-05
9,C16U C50G C67U,0.000119 ± 2.9e-05
10,C8U U31C A39U G66C,< 1e-05
11,G7C G35U G38U,< 1e-05
12,A14G G44C U55G C67U,0.000221 ± 4.1e-05
13,G29C U46G A64U,< 1e-05
14,C8A G44A U46G C70G,< 1e-05
15,C10A C11G C16G A48U C50G C70A,6.85e-05 ± 1.8e-05
16,C16G G32U C70U,0.000712 ± 0.00013
17,C11A A33G C50U C58U G59U G63A,< 1e-05
18,G9U A15U A52U,< 1e-05
19,A14U A48C U56G C68A,< 1e-05
20,G13U G40A G66C C71A,2.79e-05 ± 1.3e-05
21,U31C G35A G40C C58U G60A,< 1e-05
22,G35C G51U G62U,< 1e-05
23,G21U A33U C70U,0.000159 ± 2.9e-05
24,C11U A36C A39G U45G C61U,< 1e-05

row,Variant,self-cleavage kobs at 10000 uM GlcN6P [s⁻¹]
1,G32C G38C G60U C67G,< 1e-05
2,G13A G51U G60U,< 1e-05
3,A12U G44A A52U,4.81e-05 ± 2e-05
4,G13C G40A,2.64e-05 ± 9.8e-06
5,G13C A36C U54C,< 1e-05
6,G7A C34U A42C,< 1e-05
7,A15U G59U C71G,< 1e-05
8,A12C A15U U31C,6.96e-05 ± 1.7e-05
9,A6U G7U G9C,< 1e-05
10,C11A U31C U45A,4.34e-05 ± 1.5e-05
11,C16U G40C A53C C71U,0.000561 ± 0.00013
12,A12U U47G A52U U69G,6.72e-05 ± 3e-05
13,G7C G29A,< 1e-05
14,A33U G62U C71A,< 1e-05
15,G9U A15C G62A,< 1e-05
16,G7C A14U U47A,< 1e-05
17,C8U A42U C50U,< 1e-05
18,A12U G59A C67G,4.16e-05 ± 1.6e-05
19,C8G C16U A53G C61U,< 1e-05
20,G7U C11U C16A U45A G51A G60C,< 1e-05
21,A6G C16G C50G,5.57e-05 ± 2.1e-05
22,A42U U56C,5.38e-05 ± 1.2e-05
23,A42C U49C U57A,< 1e-05
24,C8U A14U A36U,< 1e-05

row,Variant,self-cleavage kobs at 10000 uM GlcN6P [s⁻¹]
1,G35A G38U A53C C70U,< 1e-05
2,U56G A64U C70U,4.79e-05 ± 1.2e-05
3,A15U G41U A48U U55C,< 1e-05
4,G13C U49G G59U,< 1e-05
5,A33U G44A G63U,< 1e-05
6,C8A C34A A64G,< 1e-05
7,A12U U30A A39U U55C,0.0143 ± 0.0028
8,A14G U30G U47C,0.00168 ± 0.00041
9,C11U G32A A42G A53U,9.31e-05 ± 2.5e-05
10,A33U G40A,4.3e-05 ± 5.8e-06
11,A12G A14C A39C G44U G51U,< 1e-05
12,G7A C71U,3.82e-05 ± 1e-05
13,G7A G29C U47G A53G,< 1e-05
14,A36U G43C U54C U55C G63C C71A,< 1e-05
15,C10A C16U A52C,< 1e-05
16,A12G U55A C68U,0.00042 ± 0.0001
17,A39G U45C C67A,0.00692 ± 0.0024
18,G29U G37A C67U,5.27e-05 ± 1.5e-05
19,C34A A64G U69C,< 1e-05
20,G51U A53U G60U C70U,< 1e-05
21,A33U A53U G59U,< 1e-05
22,A12G G29A G63A,< 1e-05
23,A14U C34U C68G,7.15e-05 ± 2.1e-05

# — the supplement of paper PMC7125110
